T1: GST-LSH10 (Arabidopsis, UniProt Q9S7R3 1-177)
T1 sequence: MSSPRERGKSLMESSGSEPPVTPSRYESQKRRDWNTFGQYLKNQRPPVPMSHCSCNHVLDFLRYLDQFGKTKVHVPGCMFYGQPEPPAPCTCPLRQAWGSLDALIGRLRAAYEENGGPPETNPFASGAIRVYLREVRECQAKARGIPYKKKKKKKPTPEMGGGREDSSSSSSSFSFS

B1: LSH10-GFP (natural protein)
chain: T1 sequence
B2: probe f (ABI5) (dsDNA)
DNA 1: GCTTTTAAACTATGTGAAGGAGGAGAACCTCCATAACAA
DNA 2: TTGTTATGGAGGTTCTCCTCCTTCACATAGTTTAAAAGC
B3: probe c (WUS) (dsDNA)
DNA 1: TTTTAGAATTTTTGTTTTGTTTTCTGTGTGTATG
DNA 2: CATACACACAGAAAACAAAACAAAAATTCTAAAA
B4: probe e (WUS) (dsDNA)
DNA 1: ATTTACCGTTAACTTTGTGAACAAAAGTCGAATCAAACACAC
DNA 2: GTGTGTTTGATTCGACTTTTGTTCACAAAGTTAACGGTAAAT
B5: probe a (OSR2) (dsDNA)
DNA 1: TAATATAAATTGCGTTTTGTTTTCCAGATATCAA
DNA 2: TTGATATCTGGAAAACAAAACGCAATTTATATTA
B6: probe d (WUS) (dsDNA)
DNA 1: TATATATATATAATCTTCTCTCTCACACAAAACCTAAAA
DNA 2: TTTTAGGTTTTGTGTGAGAGAGAAGATTATATATATATA
B7: probe g (ABI5) (dsDNA)
DNA 1: ACAAGAAGCGGATTCTCTCAGTTTTCCGGCGGCGGAGGAACA
DNA 2: TGTTCCTCCGCCGCCGGAAAACTGAGAGAATCCGCTTCTTGT
B8: probe h (ARL) (dsDNA)
DNA 1: TCAGAGAAAGTGTCTAGGGGAGAAGAACCACTGTGATTG
DNA 2: CAATCACAGTGGTTCTTCTCCCCTAGACACTTTCTCTGA
B9: probe b (OSR2) (dsDNA)
DNA 1: CTGTAACGTCTTTCTCTTCACACACATAAAAAAG
DNA 2: CTTTTTTATGTGTGTGAGAGAGAAAGACGTTACAG

What follows are binders tested against OTLD1-RFP (Arabidopsis) (assay: FRET or BRET; acceptor photobleaching FRET (AB-FRET): GFP donor, RFP acceptor, transiently co-expressed in N. benthamiana leaves; %AB-FRET = percent increase in GFP emission after RFP photobleaching, cell nucleus, n = 13 cells). Settings: not given.
OTLD1-RFP (Arabidopsis), sequence (F4IFS7 whole entry): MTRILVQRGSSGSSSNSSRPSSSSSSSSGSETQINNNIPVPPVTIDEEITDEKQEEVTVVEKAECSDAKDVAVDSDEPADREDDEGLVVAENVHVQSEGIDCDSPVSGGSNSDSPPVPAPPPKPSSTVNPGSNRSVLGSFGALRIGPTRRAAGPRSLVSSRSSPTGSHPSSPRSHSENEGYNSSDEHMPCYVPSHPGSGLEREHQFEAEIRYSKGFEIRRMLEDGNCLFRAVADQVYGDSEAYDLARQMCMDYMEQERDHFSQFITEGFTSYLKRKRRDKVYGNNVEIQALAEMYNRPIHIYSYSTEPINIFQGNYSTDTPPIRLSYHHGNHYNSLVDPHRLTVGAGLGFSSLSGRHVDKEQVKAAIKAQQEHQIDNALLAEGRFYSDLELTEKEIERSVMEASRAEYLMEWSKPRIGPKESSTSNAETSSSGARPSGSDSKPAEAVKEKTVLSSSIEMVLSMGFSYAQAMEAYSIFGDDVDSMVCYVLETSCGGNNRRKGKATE

%AB-FRET (increase in the donor fluorescence) | Binder
13% | B1

The binders below were run against T1, GST-LSH10 (assay: EMSA; poly dI.dC; reduced by 300x unlabeled probe; 100 mM Tris, 500 mM KCl, 10 mM DTT, pH 7.5 (as printed binding buffer), 1 ug dI.dC, 10 ng probe, 1 ug protein, room temperature 20 min, 6% native PAGE). Settings: protein: recombinant; tags: N-terminal GST (pGEX-5X-1); label: biotin (labeled probe).

Binder | binding result
B2 | binds
B3 | binds
B4 | binds
B5 | binds
B6 | binds
B7 | binds
B8 | binds

Same assay, conditions: protein: recombinant; tags: N-terminal GST (pGEX-5X-1); label: biotin (labeled probe); internal mismatch/bulge as printed

Binder | binding result
B9 | binds

Source: publication PMC9845307, “Arabidopsis LSH10 transcription factor and OTLD1 histone deubiquitinase interact and transcriptionally regulate the same target genes”
